Molecular target: the molecule itself
Experiment: AUC

B1: C9ORF72-SMCR8-WDR41 complex (complex)
chain 1: MSTLCPPPSPAVAKTEIALSGKSPLLAATFAYWDNILGPRVRHIWAPKTEQVLLSDGEITFLANHTLNGEILRNAESGAIDVKFFVLSEKGVIIVSLIFDGNWNGDRSTYGLSIILPQTELSFYLPLHRVCVDRLTHIIRKGRIWMHKERQENVQKIILEGTERMEDQGQSIIPMLTGEVIPVMELLSSMKSHSVPEEIDIADTVLNDDDIGDSCHEGFLLNAISSHLQTCGCSVVVGSSAEKVNKIVRTLCLFLTPAERKCSRLCEAESSFKYESGLFVQGLLKDSTGSFVLPFRQVMYAPYPTTHIDVDVNTVKQMPPCHEHIYNQRRYMRSELTAFWRATSEEDMAQDTIIYTDESFTPDLNIFQDVLHRDTLVKAFLDQVFQLKPGLSLRSTFLAQFLLVLHRKALTLIKYIEDDTQKGKKPFKSLRNLKIDLDLTAEGDLNIIMALAEKIKPGLHSFIFGRPFYTSVQERDVLMTF
chain 2: MISAPDVVAFTKEEEYEEEPYNEPALPEEYSVPLFPFASQGANPWSKLSGAKFSRDFILISEFSEQVGPQPLLTIPNDTKVFGTFDLNYFSLRIMSVDYQASFVGHPPGSAYPKLNFVEDSKVVLGDSKEGAFAYVHHLTLYDLEARGFVRPFCMAYISADQHKIMQQFQELSAEFSRASECLKTGNRKAFAGELEKKLKDLDYTRTVLHTETEIQKKANDKGFYSSQAIEKANELASVEKSIIEHQDLLKQIRSYPHRKLKGHDLCPGEMEHIQDQASQASTTSNPDESADTDLYTCRPAYTPKLIKAKSTKCFDKKLKTLEELCDTEYFTQTLAQLSHIEHMFRGDLCYLLTSQIDRALLKQQHITNFLFEDFVEVDDRMVEKQESIPSKPSQDRPPSSSLEECPIPKVLISVGSYKSSVESVLIKMEQELGDEEYKEVEVTELSSFDPQENLDYLDMDMKGSISSGESIEVLGTEKSTSVLSKSDSQASLTVPLSPQVVRSKAVSHRTISEDSIEVLSTCPSEALIPDDFKASYPSAINEEESYPDGNEGAIRFQASISPPELGETEEGSIENTPSQIDSSCCIGKESDGQLVLPSTPAHTHSDEDGVVSSPPQRHRQKDQGFRVDFSVENANPSSRDNSCEGFPAYELDPSHLLASRDISKTSLDNYSDTTSYVSSVASTSSDRIPSAYPAGLSSDRHKKRAGQNALKFIRQYPFAHPAIYSLLSGRTLVVLGEDEAIVRKLVTALAIFVPSYGCYAKPVKHWASSPLHIMDFQKWKLIGLQRVASPAGAGTLHALSRYSRYTSILDLDNKTLRCPLYRGTLVPRLADHRTQIKRGSTYYLHVQSMLTQLCSKAFLYTFCHHLHLPTHDKETEELVASRQMSFLKLTLGLVNEDVRVVQYLAELLKLHYMQESPGTSHPMLRFDYVPSFLYKI
chain 3: MLRWLIGGGREPQGLAEKSPLQTIGEEQTQNPYTELLVLKAHHDIVRFLVQLDDYRFASAGDDGIVVVWNAQTGEKLLELNGHTQKITAIITFPSLESCEEKNQLILTASADRTVIVWDGDTTRQVQRISCFQSTVKCLTVLQRLDVWLSGGNDLCVWNRKLDLLCKTSHLSDTGISALVEIPKNCVVAAVGKELIIFRLVAPTEGSLEWDILEVKRLLDHQDNILSLINVNDLSFVTGSHVGELIIWDALDWTMQAYERNFWDPSPQLDTQQEIKLCQKSNDISIHHFTCDEENVFAAVGRGLYVYSLQMKRVIACQKTAHDSNVLHVARLPNRQLISCSEDGSVRIWELREKQQLAAEPVPTGFFNMWGFGRVSKQASQPVKKQQENATSCSLELIGDLIGHSSSVEMFLYFEDHGLVTCSADHLIILWKNGERESGLRSLRLFQKLEENGDLYLAV
For B1, the “stoichiometry N” value was 2.
